Measurements as given in the nanobody polyreactivity screen of Harvey et al. (2022).

Experiment: yeast display, Sf9 membrane polyspecificity reagent, FACS + sequencing; frameworks hold sequencing errors
How it was run: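 After 36–48 hours of galactose induction, yeast (Saccharomyces cerevisiae BJ5465) displaying a synthetic nanobody library were stained at 4 °C for 1 hour with 10% biotinylated, detergent-solubilized Sf9 membrane reagent. Streptavidin microbeads enriched the stained cells before FACS sorting into low and high (top ~1%) gates on anti-HA and streptavidin fluorescence. Each clone's polyreactivity label reflects its gate of origin.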

Row | Sequence | polyreactivity (PSR sort gate)
1 | QVQLVESGGVLVQAGGSLRLSCAASGSTFGWYAMGWYRQAPGKERELVAAITSVGSTYYADYVKGRFTISRDNAKNTVYLQMNSLKPEDTAVYYCAAGWTYAYTLSLYEYWGQGTQVTVSS | low polyreactivity
2 | QVQLVESGGVLVQAGGSLRLSCAASGSTFSTNAMGWYRQAPGKEREFVAAITWSGDSTDYADSVKGRFTISRDNAKNTVYLQMNSLKPEDTAVYYCAADFPGFYYVYPGDYWGQGTQVTVSS | low polyreactivity
3 | QVQLVESGGVLVQAGGSLRLSCAASGSTFYGYAMGWYRQAPGKERELVAAITRSGGSTYYADSVKGRFTISRDNAKNTVYLQMNSLKPEDTAVYYCARQDRDTYYHRYYYWGQGTQVTVSS | high polyreactivity
4 | QVQLVESGGVLVQAGGSLRLSCAASGSTSYNNAMGWYREAPGKEREFVAAISSNGDRTYYADSVKGRFTISRDNPKNTVYLLMNSLKPEDTAVFYCAVRSWYNYEWGQGTQVTVSS | high polyreactivity
5 | QVQLVESGGVLVQAGGSLRLSCAASGYIFSLNGMGWYRQAPGKERELVAAITVSGGRTYYADSVKGRFTISRDNAKNTVYLQMNSLKPEDTAVYYCAKRGKYSYWPYYKYDYWGQGTQVTVSS | high polyreactivity
6 | QVQLVESGGVLVQAGGSLRLSCAASVFIFPYYAMGRYRQEPGKEMELVAAISSGGITNYADSVKGRFTISRDNSKNTVYLQMNSLKPEDTAVYYCAAKRRVGNFRYGYWGQGTQVTVSS | high polyreactivity
7 | QVQLVESGGVLVQAGGSLRLSCAAYGSNFVRNGMGWYRQAPGKEREFVASITSGTITYYADSVKGRFTISRDNAKNTVYLQMNSLKPEDTAVYYCNAGCRSSRFKRPYFRERNYWGQGTQLTVSS | high polyreactivity
8 | QVQLVESGGVLVQAGGSLRLSSAASGGTFWYYAMGMYRQEPGKERELVASISRGGSTNYADSVKGRFTISRDKAKHTVDLQMNRLKPEDTAVYYCIAGLRVGPRRYVDYEYDYWGQGSQVTVSS | low polyreactivity
9 | QVQLVESGGVLVQAGGSLRLTCAASGRIFQNYAMGWYRQAPAKERELDATISSGVSTYYADSVKGRFTISRDNAKNTVYLQMNSLKPEDTAVYYCAAYVPWFEMDYWGQGTQVTVSS | low polyreactivity
10 | QVQLVESGGVLVQAGGSLRLTCAASGSTFLYNAMGWYRQAPGKEREFVAAISGSGGTTYYADSVKGRFTISRDNAKNTVYLQMNSLKPEDTAVYYCAVSQSWYWYYASDYWGQGTQVTVSS | low polyreactivity
11 | QVQLVESGGVLVQARVSLRLSCAASGLTIYYYAMGWYRQAPGQERELVAAITWRGGSTYYADSVKGRFTISRDNEKNTVYLQMISLKPEVTAVYYCAADPGPYGYYYWGLGTQVTVSS | low polyreactivity
12 | QVQLVESGGVLVQSGGSLRLSCAASGFIFYDYAMGWYRQAPGKEREMVAAITSGGSTYYADSVKGRFTISRDNAKNTVYLQMKSLKPEDTAVYYCAADAYNLDDDTYDYWGQGTIVTVSS | low polyreactivity
13 | QVQLVESGGWLVQAGGSLRLRCAASGRIFSRYAMGWYRQAPGKEWELVAAISWSGGSTYYADSVKGRFTISRDNAKNTVYLQMNSLKPEDTAVYYCAAKRQYTEYNYWGQGSQVTVSS | high polyreactivity
14 | QVQLVESGGWLVQAGGSLRLSCAASGSTFEDYVMGWYRQAPGTEREFVAAISRGSGSTYYADSVKGRFTISRDNAKNTVFLQMNSLKPEDTAVYYCAARSQLGYRTRYPTYYWGQGTQVTVSS | high polyreactivity
15 | QVQLVESGIGLVQAGGSLSLSCAASGFNLDTYGMGWYRQAPGKERELVAAISQSDVSTYYADSVKGRFTISRDNAKNTVYLQMNSLKPEDTAVYYCAADRGGLRWFWQVLYEYWGQGTQVTVSS | low polyreactivity
16 | QVQLVESGLGLVQAGGSLRISCAASGRIFYYNAMGWYRQAPGKERELVARIRRSGGRTYYADSVKGRFTISRDNAKNTVYLLMNSLKPADTAVYYCAARRQGRSGNGSWGQGTQVTVSW | high polyreactivity
